The record followed here is patent US20030203372A1, “Analysis method” (priority 2000, published 2003).

For one data set, the system named is human macrophages. Kind of data set: Custom gene array, macrophages with no cytokines, IL-10 or LPS + IFN, in normoxia and hypoxia. It counts as cell-based. Conditions: for mRNA EXPRESSION (experimental condition) #1: #1 no cytokines/normoxia; for mRNA EXPRESSION (experimental condition) #2: #2 no cytokines/hypoxia; for mRNA EXPRESSION (experimental condition) #3: #3 IL-10/normoxia; for mRNA EXPRESSION (experimental condition) #4: #4 IL-10/hypoxia; for mRNA EXPRESSION (experimental condition) #5: #5 LPS/IFN/normoxia; for mRNA EXPRESSION (experimental condition) #6: #6 LPS/IFN/hypoxia. An outline of the steps:
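Cultured macrophages were left untreated or given IL-10 or LPS + IFN, each at 100 ng/ml final, for 6 hr under normoxia or hypoxia (0.1% oxygen). Six conditions in total.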

In data set [1] the test system is human breast and ovary tumors. Kind of data set: Custom gene array, breast and ovary tumors versus normal adjacent tissue. Conditions: for gene expression level on custom gene array, Breast nor H / gene expression level on custom gene array, Breast nor K / gene expression level on custom gene array, Ovary nor E / gene expression level on custom gene array, Ovary nor F / gene expression level on custom gene array, Ovary nor G: normal adjacent tissue; for gene expression level on custom gene array, Breast nor H / gene expression level on custom gene array, Breast tum H: patient H; for gene expression level on custom gene array, Breast nor K / gene expression level on custom gene array, Breast tum K: patient K; for gene expression level on custom gene array, Breast tum H / gene expression level on custom gene array, Breast tum K / gene expression level on custom gene array, Ovary tum E / gene expression level on custom gene array, Ovary tum F / gene expression level on custom gene array, Ovary tum G: tumor tissue; for gene expression level on custom gene array, Ovary nor E / gene expression level on custom gene array, Ovary tum E: patient E; for gene expression level on custom gene array, Ovary nor F / gene expression level on custom gene array, Ovary tum F: patient F; for gene expression level on custom gene array, Ovary nor G / gene expression level on custom gene array, Ovary tum G: patient G. An excerpt: A study has been performed to examine the expression of these genes in a selection of breast and ovary tumors, comparing expression with normal adjacent tissue from the same patient. There is expected to be a large degree of variation between different patients, and the study here contains only 5 patients with a range of diagnoses.
Patients are designated as Letters:
E: person. Diagnosis: ovarian adenocarcinoma. Normal ovarian tissue derived from an age-matched separate individual.
: person. Diagnosis: poorly differentiated adenocarcinoma. Normal ovarian tissue derived from the same individual.
G: person. Diagnosis: moderately-differentiated adenocarcinoma. Normal ovarian tissue derived from the same individual.
H: person. Diagnosis: invasive ductal carcinoma. Normnal breast tissue derived from the same individual.
K: person. Diagnosis: invasive ductal carcinoma. Normal breast tissue derived from the same individual.
Data normalisation was done per-chip to correct for differences in labelling and hybridization efficiency. Per-gene normalisation was done such that the expression values of each gene are relative to the median value of that gene throughout the series of samples. By comparing the expression values under normal (nor) and tumor (turn) for a single patient, differences in expression between the normal and malignant tissue of that patient can be inferred.

[2] abbreviates: Table 15, referenced to the median value of that gene throughout all 6 conditions.
The mark [3] stands for this setting: Table 17, referenced to median of the gene over 6 conditions.

B1: p1K8 (nucleic acid, listed as Homo Sapiens)
DNA: AGCACAGGACACAGCTGGGTTCTGAAGCTTCTGAGTTCTGCAGCCTCACCTCTGAGAAAACCTCTTTTCCACCAATACCATGAAGCTCTGCGTGACTGTCCTGTCTCTCCTCATGCTAGTAGCTGCCTTCTGCTCTCCAGCGCTCTCAGCACCAATGGGCTCAGACCCTCCCACCGCCTGCTGCTTTTCTTACACCGCGAGGAAGCTTCCTCGCAACTTTGTGGTAGATTACTATGAGACCAGCAGCCTCTGCTCCCAGCCAGCTGTGGTATTCCAAACCAAAAGAAGCAAGCAAGTCTGTGCTGATCCCAGTGAGACCTGGGTCCAGGAGTACGTGTATGACCTGGAACTGAACTGAGCTGCTCAGAGACAGGAAGTCTTCAGGGAAGGTCACCTGAGCCCGGATGCTTCTCCATGAGACACATCTCCTCCATACTCAGGACTCCTCTCCGCAGTTCCTGTCCCTTCTCTTAATTTAATCTTTTTTATGTGCCGTGTTATTGTATTAGGTGTCATTTCCATTATTTATATTAGTTTAGCCAAAGGATAAGTGTCCCCTATGGGGATGGTCCACTGTCACTGTTTCTCTGCTGTTGCAAATACATGGATAACACATTTGATTCTGTGTGTTTTCATAATAAAACTTTAAAATAAAATGCAGACAGTT
Turning to B1, in the data set with human macrophages (setting [2]), the “mRNA EXPRESSION (experimental condition) #1” value is 0.82, the “mRNA EXPRESSION (experimental condition) #2” value was 0.40, the “mRNA EXPRESSION (experimental condition) #3” value is recorded as 1.15 and the “mRNA EXPRESSION (experimental condition) #4” value is 0.38. For the same molecule, in the data set on human macrophages (setting [2]), the “mRNA EXPRESSION (experimental condition) #5” value is reported as 91.4 and the “mRNA EXPRESSION (experimental condition) #6” value is reported as 68.4. Moreover, in data set [1] (Table 19), the “gene expression level on custom gene array, Breast nor H” value (from here on “gene expression level … Breast nor H”) is given as 1.94; the “gene expression level on custom gene array, Breast nor K” value (“gene expression level … Breast nor K” below) is reported as 1.75; the “gene expression level on custom gene array, Breast tum H” value (shortened to “gene expression level … Breast tum H”) amounted to 0.68; the “gene expression level on custom gene array, Breast tum K” value (“gene expression level … Breast tum K” for short) was 1.62. Further, in data set [1] (Table 19), the “gene expression level on custom gene array, Ovary nor E” value (“gene expression level … Ovary nor E” below) is 1.00; the “gene expression level on custom gene array, Ovary nor F” value (from here on “gene expression level … Ovary nor F”) is on record as 2.48; the “gene expression level on custom gene array, Ovary nor G” value (shortened to “gene expression level … Ovary nor G”) was 1.94; the “gene expression level on custom gene array, Ovary tum E” value (“gene expression level … Ovary tum E” below) came to 0.56. In data set [1] (Table 19), the “gene expression level on custom gene array, Ovary tum F” value (from here on “gene expression level … Ovary tum F”) stood at 2.29 and the “gene expression level on custom gene array, Ovary tum G” value (shortened to “gene expression level … Ovary tum G”) is reported as 0.54.

B2: p1F17 (nucleic acid, listed as Homo Sapiens)
DNA: CAGCCTTATAAGCTGAGGGAGTGGAGAGGCCCGGGGCCAGGAAAGCAGAGACAGACAAAGCGTTAGGAGAAGAAGAGAGGCAGGGAAGACAAGCCAGGCACGATGGCCACCTTCCCACCAGCAACCAGCGCCCCCCAGCAGCCCCCAGGCCCGGAGGACGAGGACTCCAGCCTGGATGAATCTGACCTCTATAGCCTGGCCCATTCCTACCTCGGAGGTGGAGGCCGGAAAGGTCGCACCAAGAGAGAAGCTGCTGCCAACACCAACCGCCCCAGCCCTGGCGGGCACGAGAGGAAACTGGTGACCAAGCTGCAGAATTCAGAGAGGAAGAAGCGAGGGGCACGGCGCTGAGACAGAGCTGGAGATGAGGCCAGACCATGGACACTACACCCAGCAATAGAGACGGGACTGCGGAGGAAGGAGGACCCAGGACAGGATCCAGGCCGGCTTGCCACACCCCCCACCCCTAGGACTTATTCCCGCTGACTGAGTCTCTGAGGGGCTACCAGGAAAGCGCCTCCAACCCTAGCAAAAGTGCAAGATGGGGAGTGAGAGGCTGGGAATGGAGGGGCAGAGCCAGGAAGATCCCCCAGAAAAGAAAGCTACAGAAGAAACTGGGGCTCCTCCAGGGTGGCAGCAACAATAAATAGACACGCACGGCAGCCACAGCTTGGGTGTGTGTTCATCCTTGTTAAAAAAAAAAAAAAAAAAAAAAAAAA
As to B2, in the data set with human macrophages (setting [2]), the “mRNA EXPRESSION (experimental condition) #1” value worked out at 0.26, the “mRNA EXPRESSION (experimental condition) #2” value turned out to be 1.78, the “mRNA EXPRESSION (experimental condition) #3” value is recorded as 0.16 and the “mRNA EXPRESSION (experimental condition) #4” value is 0.88. Moreover, in the data set on human macrophages (setting [2]), the “mRNA EXPRESSION (experimental condition) #5” value was found to be 1.16 and the “mRNA EXPRESSION (experimental condition) #6” value is 2.59. Further, in data set [1] (Table 18), the “gene expression level … Breast nor H” value was 1.00; the “gene expression level … Breast nor K” value turned out to be 0.92; the “gene expression level … Breast tum H” value stood at 0.97; the “gene expression level … Breast tum K” value was determined as 1.33. In addition, in data set [1] (Table 18), the “gene expression level … Ovary nor E” value was found to be 1.18; the “gene expression level … Ovary nor F” value came to 1.27; the “gene expression level … Ovary nor G” value is reported as 0.55; the “gene expression level … Ovary tum E” value amounted to 0.17. Moreover, in data set [1] (Table 18), the “gene expression level … Ovary tum F” value is given as 1.47 and the “gene expression level … Ovary tum G” value came out at 1.79. In data set [1] (Table 19), the “gene expression level … Breast nor H” value amounted to 1.00; the “gene expression level … Breast nor K” value is listed as 0.92; the “gene expression level … Breast tum H” value is listed as 0.97; the “gene expression level … Breast tum K” value is reported as 1.33. In data set [1] (Table 19), the “gene expression level … Ovary nor E” value was found to be 1.18; the “gene expression level … Ovary nor F” value was found to be 1.27; the “gene expression level … Ovary nor G” value is 0.55; the “gene expression level … Ovary tum E” value amounted to 0.17. In addition, in data set [1] (Table 19), the “gene expression level … Ovary tum F” value turned out to be 1.47 and the “gene expression level … Ovary tum G” value was 1.79.

B3: p1K2 (nucleic acid, listed as Homo Sapiens)
DNA: AAGTCTCAGAGGCTGGAGAGCAGAGCACCAAGATCGTTCTGGCAGGAACAGCCAGTGGGAGGTTCCAGCTGAGCGCTCCCCAGAGGTGAGCTGATCCCCAGCCACAGCACACAGGACCAGGCTGCGAGAACAGCATCATCAGCATCATGCTATTACAATCCCAAACCATGGGGGTTTCTCACAGCTTTACACCAAAGGGCATCACTATCCCTCAAAGAGAGAAACCTGGACACATGTACCAAAACGAAGATTACCTGCAGAACGGGCTGCCAACAGAAACCACCGTTCTTGGGACAGTCCAGATCCTGTGTTGCCTGTTGATTTCAAGTCTGGGGGCCATCTTGGTTTTTGCTCCCTACCCCTCCCACTTCAATCCAGCAATTTCCACCACTTTGATGTCTGGGTACCCATTTTTAGGAGCTCTGTGTTTTGGCATTACTGGATCCCTCTCAATTATCTCTGGAAAACAATCAACTAAGCCCTTTGACCTGAGCAGCTTGACCTCAAATGCAGTGAGTTCTGTTACTGCAGGAGCAGGCCTCTTCCTCCTTGCTGACAGCATGGTAGCCCTGAGGACTGCCTCTCAACATTGTGGCTCAGAAATGGATTATCTATCCTCATTGCCTTATTCGGAGTACTATTATCCAATATATGAAATCAAAGATTGTCTCCTGACCAGTGTCAGTTTAACAGGTGTCCTAGTGGTGATGCTCATCTTCACTGTGCTGGAGCTCTTATTAGCTGCATACAGTTCTGTCTTTTGGTGGAAACAGCTCTACTCCAACAACCCTGGGAGTTCATTTTCCTCGACCCAGTCACAAGATCATATCCAACAGGTCAAAAAGAGTTCTTCACGGTCTTGGATATAAGTAACTCTTGGCCTCAGAGGAAGGAAAAGCAACTCAACACTCATGGTCAAGTGTGATTAGACTTTCCTGAAATCTCTGCCATTTTAGATACTGTGAAACAAACTAAAAAAAAAAAAGCTTTTGTTTTGTATTTGTTTACTATGAGTCGTTATTTAATTTCTCTTGAAAATAATTTCCTCAAAGCCCAAGTCAATAAA
With B3, in the data set with human macrophages (setting [3]), the “mRNA EXPRESSION (experimental condition) #1” value is 1.30, the “mRNA EXPRESSION (experimental condition) #2” value is 0.98, the “mRNA EXPRESSION (experimental condition) #3” value is listed as 0.51 and the “mRNA EXPRESSION (experimental condition) #4” value is reported as 0.59. Besides, in the data set with human macrophages (setting [3]), the “mRNA EXPRESSION (experimental condition) #5” value turned out to be 1.11 and the “mRNA EXPRESSION (experimental condition) #6” value is given as 0.91. Also, in data set [1] (Table 19), the “gene expression level … Breast nor H” value worked out at 1.00; the “gene expression level … Breast nor K” value was 0.79; the “gene expression level … Breast tum H” value is on record as 0.49; the “gene expression level … Breast tum K” value worked out at 1.52. In data set [1] (Table 19), the “gene expression level … Ovary nor E” value is 0.47; the “gene expression level … Ovary nor F” value is reported as 1.30; the “gene expression level … Ovary nor G” value was 2.32; the “gene expression level … Ovary tum E” value is 0.29. Further, in data set [1] (Table 19), the “gene expression level … Ovary tum F” value is reported as 1.06 and the “gene expression level … Ovary tum G” value came to 0.31.
